This is an account of results in PMC9529347.

In general, Kd refers to the free concentration of one partner at which half of the binding sites on the other are occupied at equilibrium, for simple one-to-one binding.

For the test, the target named is SARS-CoV-1 RBD monomer (N321-P513) with C-terminal AVI-tag and 6xHIS-tag (SARS-CoV-1). Put plainly: SPR. For orientation: Surface plasmon resonance follows binding to a sensor surface in real time, without labels.

soluble human ACE2, truncated ectodomain (S19-D615), C-terminal 6xHIS-tag, sequence (Q9BYF1 19-615): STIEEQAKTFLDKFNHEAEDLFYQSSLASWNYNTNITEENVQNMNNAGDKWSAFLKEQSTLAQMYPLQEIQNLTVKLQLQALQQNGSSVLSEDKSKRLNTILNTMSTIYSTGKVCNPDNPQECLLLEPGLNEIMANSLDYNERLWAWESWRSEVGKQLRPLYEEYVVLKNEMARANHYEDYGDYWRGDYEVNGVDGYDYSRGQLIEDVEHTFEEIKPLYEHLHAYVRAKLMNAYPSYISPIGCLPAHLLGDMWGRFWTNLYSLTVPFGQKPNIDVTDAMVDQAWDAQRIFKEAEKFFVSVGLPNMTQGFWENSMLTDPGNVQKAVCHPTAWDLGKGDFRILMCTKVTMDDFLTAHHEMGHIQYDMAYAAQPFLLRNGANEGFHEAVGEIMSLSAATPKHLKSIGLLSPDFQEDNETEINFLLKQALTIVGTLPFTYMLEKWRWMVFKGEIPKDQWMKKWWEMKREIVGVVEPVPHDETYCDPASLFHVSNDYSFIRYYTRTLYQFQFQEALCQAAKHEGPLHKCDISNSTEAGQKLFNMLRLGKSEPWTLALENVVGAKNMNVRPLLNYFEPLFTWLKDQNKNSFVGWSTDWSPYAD

As to “soluble human ACE2, truncated ectodomain (S19-D615), C-terminal 6xHIS-tag (from UniProt Q9BYF1 19-615) (receptor)”, the Kd came to 253 nM.
